The values that follow are results of earlier work, collected in patent publication US20190345209.

For this data set, the system named is BCR-ABL1 zinc finger protein (three-finger ZFP) (synthetic construct). Conditions: CITED (ref 50); p122 prints 78 uM, evidently a typo.

For orientation: Kd means a measure of binding affinity in units of concentration. Take “GCAGAAGCC (double strand) [BCR-ABL1 9 bp binding site (in Go92, Go66, Go85 promoters)]”: the Kd was 0.078 nM.
